In paper doi:10.1101/442517 (bioRxiv, 2018) one finds Kd data, which are given here for one molecule.

For assay [1], the target named is RaxX21-sY (tyrosine sulfated synthetic 21-residue derivative of RaxX, residues 35-55) (Xanthomonas oryzae pv. oryzae). The assay is described as follows: MST.
For assay [2], the target named is RaxX21-nY (non-sulfated synthetic 21-residue derivative of RaxX, residues 35-55) (Xanthomonas oryzae pv. oryzae). Put plainly: MST.

Broadly, the Kd is the free concentration of one partner at which half of the binding sites on the other are occupied at equilibrium, for simple one-to-one binding.

B1: XA21 extracellular domain (XA21^ECD; XA21 residues 23-649) (domain or fragment)
chain: SDDDGDAAGDELALLSFKSSLLYQGGQSLASWNTSGHGQHCTWVGVVCGRRRRRHPHRVVKLLLRSSNLSGIISPSLGNLSFLRELDLGDNYLSGEIPPELSRLSRLQLLELSDNSIQGSIPAAIGACTKLTSLDLSHNQLRGMIPREIGASLKHLSNLYLYKNGLSGEIPSALGNLTSLQEFDLSFNRLSGAIPSSLGQLSSLLTMNLGQNNLSGMIPNSIWNLSSLRAFSVRENKLGGMIPTNAFKTLHLLEVIDMGTNRFHGKIPASVANASHLTVIQIYGNLFSGIITSGFGRLRNLTELYLWRNLFQTREQDDWGFISDLTNCSKLQTLNLGENNLGGVLPNSFSNLSTSLSFLALELNKITGSIPKDIGNLIGLQHLYLCNNNFRGSLPSSLGRLKNLGILLAYENNLSGSIPLAIGNLTELNILLLGTNKFSGWIPYTLSNLTNLLSLGLSTNNLSGPIPSELFNIQTLSIMINVSKNNLEGSIPQEIGHLKNLVEFHAESNRLSGKIPNTLGDCQLLRYLYLQNNLLSGSIPSALGQLKGLETLDLSSNNLSGQIPTSLADITMLHSLNLSFNSFVGEVPTIGAFAAASGISIQGNAKLCGGIPDLHLPRCCPLLENRK
Turning to B1, the Kd in assay [1] amounted to 20 nM; in assay [2], 400 nM.
